Data from publication PMC7202955 (Current biology : CB, 2020).

Molecular target: the molecule itself
Assay: cross-linking

B1: β3 TMD-tail (construct of the cross-linking experiment, Figure S5) (domain or fragment, UniProt P05106 711-788, looked up)
chain: PECPKGPDILVVLLSVMGAILLIGLAALLIWKLLITIHDRKEFAKFEEERARAKWDTANNPLYKEATSTFTNITYRGT
stoichiometry N: 2
